The values that follow come from paper PMC10651481, “m1A in CAG repeat RNA binds to TDP-43 and induces neurodegeneration”.

One series concerns the target TDP-43-RRM (UniProt Q13148 104-262). As to the kind of experiment: EMSA; EMSA: 10 mM HEPES pH 8.0, 50 mM KCl, 1 mM EDTA, 5% glycerol, 1 mM DTT, 40 U/ml RNase inhibitor, 4 C, 1 h; 20 fmol probe in 20 ul; 8% native PAGE. The following applies: protein: recombinant.
In series [1] the target is T1, TDP-43 full-length (UniProt Q13148 1-414). The description is as above. The settings on record: protein: recombinant, tags: MBP-6xHis (C-terminal as named TDP-43-MBP-6xHis).
T1 sequence (Q13148 whole entry): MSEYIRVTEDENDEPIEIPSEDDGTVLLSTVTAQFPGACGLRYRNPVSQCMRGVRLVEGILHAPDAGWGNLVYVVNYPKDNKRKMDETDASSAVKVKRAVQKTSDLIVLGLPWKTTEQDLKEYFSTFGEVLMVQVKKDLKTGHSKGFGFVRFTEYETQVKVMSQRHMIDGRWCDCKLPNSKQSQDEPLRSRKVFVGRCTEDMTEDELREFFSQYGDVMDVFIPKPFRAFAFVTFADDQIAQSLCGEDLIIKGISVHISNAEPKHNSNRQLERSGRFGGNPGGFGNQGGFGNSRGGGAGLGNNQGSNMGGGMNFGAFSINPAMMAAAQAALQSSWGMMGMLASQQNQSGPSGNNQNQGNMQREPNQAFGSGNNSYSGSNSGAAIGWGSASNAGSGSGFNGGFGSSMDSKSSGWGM
In series [2] the target is T1, TDP-43 full-length. As to the kind of experiment: EMSA; separate experiment run beside 5FL; differs from 70 nM in 3d,e; EMSA: 10 mM HEPES pH 8.0, 50 mM KCl, 1 mM EDTA, 5% glycerol, 1 mM DTT, 40 U/ml RNase inhibitor, 4 C, 1 h; 20 fmol probe in 20 ul; 8% native PAGE. The settings on record: protein: recombinant; tags: MBP-6xHis (C-terminal as named TDP-43-MBP-6xHis); label: 5'-32P.

TDP-43-RRM, sequence (Q13148 104-262): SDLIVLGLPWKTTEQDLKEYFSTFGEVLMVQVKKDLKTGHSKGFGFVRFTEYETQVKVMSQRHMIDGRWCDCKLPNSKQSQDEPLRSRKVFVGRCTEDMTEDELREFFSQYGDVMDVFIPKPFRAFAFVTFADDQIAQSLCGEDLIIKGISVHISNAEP

In the case of CAGCAGCAGCAGCAGCAGCAG (ssRNA, m1A at position 11) [(CAG)7-1m1A], the Kd (commonly the equilibrium constant for the complex coming apart) is 180 nM with TDP-43-RRM (label: 5'-32P), 70 nM with TDP-43 full-length [1] (label: 5'-32P) and 13.1 nM with TDP-43 full-length [2].

Turning to CAGCAGCAGCAGCAGCAGCAG (ssRNA) [(CAG)7-0m1A], the dissociation constant Kd with TDP-43-RRM (label: 5'-32P) came out at 380 nM; with TDP-43 full-length [1] (label: 5'-32P), 146 nM.

For CCGUUCCGCCCAGGCCGCGCCCAGCUGGAAUGCA (ssRNA) [Control RNA probe (rA)], the Kd turned out to be 73 nM with TDP-43-RRM (label: 5'-biotin, 3'-32P pCp) and 38 nM in the series with TDP-43 full-length [1] (label: 5'-biotin, 3'-32P pCp).

For CCGUUCCGCCCAGGCCGCGCCCAGCUGGAAUGCA (ssRNA, m6A at position 12) [m6A RNA probe], the equilibrium dissociation constant (Kd) with TDP-43-RRM (label: 5'-biotin, 3'-32P pCp) turned out to be 81 nM; with TDP-43 full-length [1] (label: 5'-biotin, 3'-32P pCp), 46 nM.

CCGUUCCGCCCAGGCCGCGCCCAGCUGGAAUGCA (ssRNA, m1A at position 12) [m1A RNA probe]: the Kd in the series with TDP-43-RRM (label: 5'-biotin, 3'-32P pCp) was 31 nM; with TDP-43 full-length [1] (label: 5'-biotin, 3'-32P pCp) it was 18 nM.
